Measured values from patent publication US20240270821A1, “GIP/GLP1/GCG TRI-RECEPTOR AGONISTS AND USES THEREOF” (priority 2023, published 2024).
Where a chain is given by its changes, count along the chain named.

B1: Example 801 (peptide)
chain: YXQGTFTSDXSKXLDKKAQXAFIEYLIEXGPSSGAPPPSGS
modifications: synthetic construct; SITE 2: note = 2-Aminoisobutyric Acid; SITE 10: note = 3-(4-Pyridyl)-L-alanine; SITE 13: note = alpha-methyl-leucine; SITE 17: note = Lysine is chemically modified through conjugation of the epsilon-amino group of the Lysine side chain with (2-[2-(2-Amino-ethoxy)-ethoxy]-acetyl)
B2: Example 862 (SEQ ID NO: 868) (peptide)
chain: B1 chain with X10F, K12Q
modifications: not fully specified; synthetic construct; SITE 2: note = 2-Aminoisobutyric Acid; SITE 13: note = alpha-methyl-leucine; SITE 17: note = Lysine is chemically modified through conjugation of the epsilon-amino group of the Lysine side chain with (gamma-Glu)3-CO-(CH2)16-CO2H; SITE 20: note = 3-(4-Pyridyl)-L-alanine; SITE 29:
B3: Example 805 (peptide)
chain: B1 chain with X10F, G30S
modifications: synthetic construct; SITE 2: note = 2-Aminoisobutyric Acid; SITE 13: note = alpha-methyl-leucine; SITE 17: note = Lysine is chemically modified through conjugation of the epsilon-amino group of the Lysine side chain with (2-[2-(2-Amino-ethoxy)-ethoxy]-acetyl)-(gamma-Glu)-CO-(CH2) 16-CO2H; SITE 20: n
B4: Example 822 (peptide)
chain: B1 chain with K12Q, I27L, X29A, S41X
modifications: synthetic construct; SITE 2: note = 2-Aminoisobutyric Acid; SITE 10: note = 3-(4-Pyridyl)-L-alanine; SITE 13: note = alpha-methyl-leucine; SITE 17: note = Lysine is chemically modified through conjugation of the epsilon-amino group of the Lysine side chain with (2-[2-(2-Amino-ethoxy)-ethoxy]-acetyl)
B5: Example 891 (SEQ ID NO: 897) (peptide)
chain: YXQGTFTSDXSQXLDKKAQXAFIEYLIEXGPSSGAPPPSGSGE
modifications: not fully specified; C-terminus uncertain, likely amide; synthetic construct; SITE 2: note = 2-Aminoisobutyric Acid; SITE 10: note = 3-(4-Pyridyl)-L-alanine; SITE 13: note = alpha-methyl-leucine; SITE 17: note = Lysine is chemically modified through conjugation of the epsilon-amino group of the Lysine side chain with (gamma-Glu)2-CO-(CH2)16-CO2H; SITE 20:
B6: Example 902 (peptide)
chain: B5 chain with Q12K, G42E
modifications: synthetic construct; SITE 2: note = 2-Aminoisobutyric Acid; SITE 10: note = 3-(4-Pyridyl)-L-alanine; SITE 13: note = alpha-methyl-leucine; SITE 17: note = Lysine is chemically modified through conjugation of the epsilon-amino group of the Lysine side chain with (2-[2-(2-Amino-ethoxy)-ethoxy]-acetyl)
B7: Example 893 (SEQ ID NO: 899) (peptide)
chain: B5 chain
modifications: not fully specified; synthetic construct; SITE 2: note = 2-Aminoisobutyric Acid; SITE 10: note = 3-(4-Pyridyl)-L-alanine; SITE 13: note = alpha-methyl-leucine; SITE 17: note = Lysine is chemically modified through conjugation of the epsilon-amino group of the Lysine side chain with (gamma-Glu)2-CO-(CH2)16-CO2H; SITE 20:
B8: Example 903 (peptide)
chain: YXQGTFTSDXSKXLDKKAQXAFIEYLIEXGPSSGAPPPSGSEEE
modifications: synthetic construct; SITE 2: note = 2-Aminoisobutyric Acid; SITE 10: note = 3-(4-Pyridyl)-L-alanine; SITE 13: note = alpha-methyl-leucine; SITE 17: note = Lysine is chemically modified through conjugation of the epsilon-amino group of the Lysine side chain with (2-[2-(2-Amino-ethoxy)-ethoxy]-acetyl)
B9: Example 901 (peptide)
chain: YXQGTFTSDXSKXLDKKAQXAFIEYLIEXGPSSGAPPPSGSE
modifications: synthetic construct; SITE 2: note = 2-Aminoisobutyric Acid; SITE 10: note = 3-(4-Pyridyl)-L-alanine; SITE 13: note = alpha-methyl-leucine; SITE 17: note = Lysine is chemically modified through conjugation of the epsilon-amino group of the Lysine side chain with (2-[2-(2-Amino-ethoxy)-ethoxy]-acetyl)
B10: Example 904 (peptide)
chain: B9 chain
modifications: synthetic construct; SITE 2: note = 2-Aminoisobutyric Acid; SITE 10: note = 3-(4-Pyridyl)-L-alanine; SITE 13: note = alpha-methyl-leucine; SITE 17: note = Lysine is chemically modified through conjugation of the epsilon-amino group of the Lysine side chain with (gamma-Glu)2-CO-(CH2)16-CO2H; SITE 20:
B11: Example 824 (peptide)
chain: B1 chain with K12Q, I27L, X29A, G34X, S41T
modifications: C-terminal amide; acylated; synthetic construct; SITE 2: note = 2-Aminoisobutyric Acid; SITE 10: note = 3-(4-Pyridyl)-L-alanine; SITE 13: note = alpha-methyl-leucine; SITE 17: note = Lysine is chemically modified through conjugation of the epsilon-amino group of the Lysine side chain with (2-[2-(2-Amino-ethoxy)-ethoxy]-acetyl)
B12: Example 825 (peptide)
chain: B1 chain with K12Q, I27L, X29A, G34X, S41T
modifications: synthetic construct; SITE 2: note = 2-Aminoisobutyric Acid; SITE 10: note = 3-(4-Pyridyl)-L-alanine; SITE 13: note = alpha-methyl-leucine; SITE 17: note = Lysine is chemically modified through conjugation of the epsilon-amino group of the Lysine side chain with (2-[2-(2-Amino-ethoxy)-ethoxy]-acetyl)

Target: hGLP-1R (Homo sapiens, UniProt P43220)
Assay: cell-based or functional assay

hGLP-1R, sequence (P43220 24-463): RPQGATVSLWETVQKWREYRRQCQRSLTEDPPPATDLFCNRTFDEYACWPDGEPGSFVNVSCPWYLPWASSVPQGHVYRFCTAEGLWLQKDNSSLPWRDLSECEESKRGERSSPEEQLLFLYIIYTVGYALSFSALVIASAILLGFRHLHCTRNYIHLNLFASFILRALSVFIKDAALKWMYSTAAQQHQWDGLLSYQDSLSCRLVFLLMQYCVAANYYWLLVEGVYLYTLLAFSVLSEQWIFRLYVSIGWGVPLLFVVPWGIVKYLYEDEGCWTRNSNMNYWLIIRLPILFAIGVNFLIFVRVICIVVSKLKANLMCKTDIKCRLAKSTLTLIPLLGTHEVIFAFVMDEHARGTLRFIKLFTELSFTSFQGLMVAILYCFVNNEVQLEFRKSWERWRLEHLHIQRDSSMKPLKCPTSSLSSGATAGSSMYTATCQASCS

In order of falling Relative cAMP EC50:
1. B12  3.4 nM
2. B8  2.7 nM
3. B6  2.58 nM
4. B4  2.51 nM
5. B11  2.43 nM
6. B10  1.94 nM
7. B9  1.26 nM
8. B1  0.938 nM
9. B3  0.715 nM

In order of rising cAMP Rel EC50 (1% HSA):
1. B1  133 nM
2. B3  146 nM
3. B9  193 nM
4. B10  198 nM
5. B6  232 nM
6. B12  303 nM
7. B4  322 nM
8. B11  343 nM
9. B8  387 nM

In order of rising cAMP Rel EC50:
1. B2  201 nM
2. B7  305 nM
3. B5  330 nM

Target: T1, human GIP receptor (human) (UniProt P48546)
T1 sequence (looked up): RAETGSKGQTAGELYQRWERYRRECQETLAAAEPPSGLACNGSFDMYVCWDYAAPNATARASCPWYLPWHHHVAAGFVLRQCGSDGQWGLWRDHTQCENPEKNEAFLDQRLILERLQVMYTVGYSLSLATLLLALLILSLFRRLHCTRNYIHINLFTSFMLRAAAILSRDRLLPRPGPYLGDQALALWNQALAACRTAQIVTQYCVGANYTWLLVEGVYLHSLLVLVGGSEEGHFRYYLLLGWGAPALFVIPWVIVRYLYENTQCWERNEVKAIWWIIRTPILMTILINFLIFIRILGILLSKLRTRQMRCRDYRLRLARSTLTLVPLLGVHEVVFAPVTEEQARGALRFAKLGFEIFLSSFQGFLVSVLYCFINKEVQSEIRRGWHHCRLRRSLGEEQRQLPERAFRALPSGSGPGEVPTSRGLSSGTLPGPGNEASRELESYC
Assay: cell-based or functional assay

In order of rising Relative cAMP EC50:
1. B3  0.0875 nM
2. B12  0.12 nM
3. B11  0.123 nM
4. B1  0.147 nM
5. B9  0.17 nM
6. B4  0.186 nM
7. B6  0.19 nM
8. B10  0.194 nM
9. B8  0.277 nM

In order of falling cAMP Rel EC50 (1% HSA):
1. B12  39.3 nM
2. B9  34 nM
3. B8  31.2 nM
4. B11  28.9 nM
5. B6  28.5 nM
6. B1  18.1 nM
7. B4  18.1 nM
8. B10  15 nM
9. B3  13 nM

In order of falling cAMP Rel EC50:
1. B7  21.4 nM
2. B5  16 nM
3. B2  12.4 nM

Target: human glucagon receptor (human) (UniProt P47871)
Assay: cell-based or functional assay

human glucagon receptor (human), sequence (P47871 26-477): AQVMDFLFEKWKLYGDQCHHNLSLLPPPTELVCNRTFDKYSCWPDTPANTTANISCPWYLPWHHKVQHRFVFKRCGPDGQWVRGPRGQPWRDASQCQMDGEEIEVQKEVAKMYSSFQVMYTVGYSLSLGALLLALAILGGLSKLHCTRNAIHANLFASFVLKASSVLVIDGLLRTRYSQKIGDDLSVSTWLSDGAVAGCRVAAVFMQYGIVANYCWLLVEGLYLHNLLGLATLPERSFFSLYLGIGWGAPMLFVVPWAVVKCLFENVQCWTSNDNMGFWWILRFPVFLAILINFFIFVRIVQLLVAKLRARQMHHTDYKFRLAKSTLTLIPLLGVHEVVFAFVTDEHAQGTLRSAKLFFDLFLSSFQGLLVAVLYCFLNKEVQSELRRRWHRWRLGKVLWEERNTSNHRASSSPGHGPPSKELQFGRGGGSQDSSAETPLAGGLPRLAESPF

In order of rising Relative cAMP EC50:
1. B3  3.97 nM
2. B1  5.51 nM
3. B12  5.53 nM
4. B11  7.92 nM
5. B9  9.09 nM
6. B10  9.88 nM
7. B4  11.6 nM
8. B8  12.9 nM
9. B6  15.9 nM

In order of rising cAMP Rel EC50 (1% HSA):
1. B11  1110 nM
2. B9  1150 nM
3. B1  1200 nM
4. B3  1210 nM
5. B10  1330 nM
6. B6  1360 nM
7. B8  1630 nM
8. B12  1810 nM
9. B4  2100 nM

In order of rising cAMP Rel EC50:
1. B7  508 nM
2. B5  581 nM
3. B2  1110 nM
